The text below walks through data of patent US20070041972A1 (Alexion, published 2007).

Test [1] concerns the target T1, human low affinity receptor for IgG (FcγRII) on K562 cells (human, UniProt P12318 34-317).
T1 construct: whole, on cells
T1 sequence (looked up): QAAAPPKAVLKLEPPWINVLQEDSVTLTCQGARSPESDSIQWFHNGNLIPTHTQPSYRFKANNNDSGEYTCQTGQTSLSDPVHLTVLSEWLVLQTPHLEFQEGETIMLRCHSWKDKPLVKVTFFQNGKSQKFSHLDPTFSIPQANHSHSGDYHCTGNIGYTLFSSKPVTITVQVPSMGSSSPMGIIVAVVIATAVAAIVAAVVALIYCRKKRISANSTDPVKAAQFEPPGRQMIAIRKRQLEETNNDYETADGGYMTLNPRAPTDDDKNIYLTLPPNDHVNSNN
Put plainly: flow cytometry on K562 cells, antibody complexed with FITC-rabbit Fab'2 anti-human Fab'2.
Excerpt: Binding of the FITC—rabbit Fab′2 anti-human Fab′2 antibodies alone is also indicated.

Test [2] concerns the target T2, human high affinity receptor for IgG (FcγRI) on U937 cells (human, UniProt P12314 16-374).
T2 construct: whole, on cells; also called FcγRI receptor
Put plainly: flow cytometry competition with 3.0 ng/mL biotinylated hIgG on U937 cells.
Description: The antibody produced in accordance with this Example was tested to evaluate binding to the human high affinity receptor for IgG (FcγRI).

B1: chimeric OKT3 hG2/G4 recombinant antibody (murine OKT3 variable regions, engineered human IgG2/IgG4 heavy chain constant region, human kappa constant region) (antibody)
heavy: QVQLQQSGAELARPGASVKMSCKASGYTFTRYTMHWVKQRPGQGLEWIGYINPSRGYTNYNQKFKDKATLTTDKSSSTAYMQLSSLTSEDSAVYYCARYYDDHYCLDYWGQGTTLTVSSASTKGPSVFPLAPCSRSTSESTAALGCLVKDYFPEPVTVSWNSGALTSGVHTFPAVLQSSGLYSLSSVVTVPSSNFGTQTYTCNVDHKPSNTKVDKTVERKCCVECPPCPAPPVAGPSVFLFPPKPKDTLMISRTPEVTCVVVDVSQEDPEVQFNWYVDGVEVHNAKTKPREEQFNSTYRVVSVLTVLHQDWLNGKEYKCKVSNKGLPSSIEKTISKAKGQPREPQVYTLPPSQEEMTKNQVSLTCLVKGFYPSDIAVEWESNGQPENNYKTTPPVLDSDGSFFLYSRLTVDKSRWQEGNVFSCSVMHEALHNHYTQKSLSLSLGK
light: QIVLTQSPAIMSASPGEKVTMTCSASSSVSYMNWYQQKSGTSPKRWIYDTSKLASGVPAHFRGSGSGTSYSLTISGMEAEDAATYYCQQWSSNPFTFGSGTKLEIKRTVAAPSVFIFPPSDEQLKSGTASVVCLLNNFYPREAKVQWKVDNALQSGNSQESVTEQDSKDSTYSLSSTLTLSKADYEKHKVYACEVTHQGLSSPVTKSFNRGEC
notes: Made in two expression systems; also called chimeric antibody containing an engineered IgG2/IgG4 human constant region
Consider B1, for which the binding result in test [1] and in test [2] was “no binding” in each case.
